69 sequences from the domain aggregation screens of Martell et al. (2025) can be followed below.

This data set is described as follows: soluble fraction after stress (log2 fold change); higher = more stays soluble; pooled small domains, quantitative proteomics. The settings on record: stress: pH 4. The gist of the method: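 How much of each domain stays soluble after acid stress, expressed as a fold change, is used to gauge aggregation propensity. Pooled custom libraries of small domains underwent pH 4 stress before high-throughput quantitative proteomics. A higher log2 value means more of the domain stayed soluble.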

Consider “HMVKIVWSKEGPYVGTRVRRYFSQGPVDGTVVMYAKPQKGDDVALWRISHDDGDEEDLEEQELRLAID”, for which the “soluble fraction (log2)” value was -1.69.

As to “HMVKLQATPSQRKTLDELYVQLKKLEPTAKEDLSLLRRLENSHLVSKQEAQGLISKAIGRVGALAVEQQP”, the “soluble fraction (log2)” value stood at 0.0541.

On to “HMVKNTIHVDLKGEVNKPGVYEVEEGTIVNDLITLANGFTKNAYQDNINLSKKLTDEMVIVVSKKGS”, for which the “soluble fraction (log2)” value is -0.461.

For the sequence “HMVKNVVIPDVSNKAPVDASNQLTDLGFEVVTEYKYIASDTIEEGKVVKTSPEIGSKRKYGQKITLYISSG”, the “soluble fraction (log2)” value is 0.205.

As for “HMVKRAYGEYVNVKLTDADLSKLKADFPADWQERIERLSTYMASTGKTYKNHLATIRNWARRDAERVSA”, the “soluble fraction (log2)” value is -0.292.

“HMVKVSVYPNPAVDRITISGEVKAYAVYDATGKVVMKDTDYRGGAIGVSHLPAGIYIVRTDAGAVTVNK”: the “soluble fraction (log2)” value is -0.246.

Regarding “HMVLSVRDRMVQILDQVKTGEYKRIEDFFSADEGRTGFVVSFVAILELVKGGLLTITQSKNLAPIYVRLPN”, the “soluble fraction (log2)” value is -0.108.

As for “HMVLVEEYDTKDSASTFKIGYYARYNTKYGTPSKVGSYADNQRSGIWTFYTDSLKTYFKYNYSTGLIL”, the “soluble fraction (log2)” value is -0.572.

“HMVLVGERRQKILEVVSSGKAVTVEELSRILHVSPSTVRRDLRFLESRGLLYRTHGGAMPPV”: the “soluble fraction (log2)” value was -0.0726.

Take “HMVLVKFEWTPPDARILVDDHPVEARDKEMELPEGTHHVQALAPRGSGYESTVTDIEVRQGMDPVRIAL”: the “soluble fraction (log2)” value came to 0.115.

For “HMVMRHTVEHDAELLAVLRLMYPASSSTKLRKMLTQGRVLVNDDVVHRAKHGVASGDTVDVIVRQRAE”, the “soluble fraction (log2)” value came out at 0.0827.

“HMVNFKLIGNKIAEARKKVNISQAQLAQRLFISSQAVGKWERGESMPDIITFNRLAEILGVDLNYFSE”: the “soluble fraction (log2)” value was 0.266.

Regarding “HMVNPDAPAPLYIVNGKETDKNIALAIKPEDVQDVRIIKNTVALQVYGEKGKNGVVIINTKPGV”, the “soluble fraction (log2)” value came out at 0.0604.

On to “HMVNSADLAAKPFIDLLVSTRQQLREAKQYDLADTIRDELTNHGITIEDKPQGSEWQYEFNPNS”, for which the “soluble fraction (log2)” value is -0.499.

Take “HMVNTYILNNKEYPIEIIRKNNKNTYLRVKEGKIIVTTNYLTSSFTINKLIKDNTSFINKALLKEN”: the “soluble fraction (log2)” value was -0.0629.

“HMVNYKEILRLAHEGYSQRQIATNIGNSRNTVSEVLDAAKAANIAWPPEETVTNEQLGAILFPNRH”: the “soluble fraction (log2)” value is not below 0.43.

As to “HMVNYKEILRLSAEGNSQRQIAAGSGNSRNTVIEVLEAARARGITWPLDEPVTNEQLEAILFPNRY”, the “soluble fraction (log2)” value was not below 0.43.

Regarding “HMVPEETKQFINQLNHGSLSIRMNAANNLEKLGLLAIPEIEAALPKAHGEAAFRLPRLLHALVLRETEYF”, the “soluble fraction (log2)” value came to 0.0598.

Turning to “HMVPEMIRDVISKSIRDMGVLPDHMQINERIALIQSLKKQQILGIKGAVAETARQLGISVPTVYRYMKKG”, the “soluble fraction (log2)” value was -0.125.

For the sequence “HMVPFISVTPTSLSFAKGGESKTVDIEASGAFSVGKVPTGFNLEVVNGRITITADANTGAARNGSVEFILA”, the “soluble fraction (log2)” value is 0.00872.

On to “HMVPHTTSMVAEVQERLFNLNYDPGPINGRMDQATITAITRFQRNFSLPQTGQIDEGFLNTLRDARL”, for which the “soluble fraction (log2)” value was found to be 0.063.

For the sequence “HMVPLGDLSKNERRAMELAATNGNVTTRALADDAQVTKRTASTTLRRLAKRGLLEWIGKGPSDPGQFYRIP”, the “soluble fraction (log2)” value was -0.119.

With “HMVPLTPGELVGTEVRVLWWKEGRGEVIASSRGHQLTLEAHSEDPLRAGSTAVVLEAADDVLVVTS”, the “soluble fraction (log2)” value was -1.18.

For the sequence “HMVPPELEFLQSLMKIEDISELTAAIENNRDAVTDDFKEMLETVIENISGAPDTDPKLLERLKTIRTVLA”, the “soluble fraction (log2)” value is -0.631.

Consider “HMVPPVVRTIYGAGGKMTATFLFPGGYEVDAASGAELPGKYRVESISLDQVVLTDKDGNRVPVGFSSVAPT”, for which the “soluble fraction (log2)” value is -0.161.

As for “HMVPQEVLPITLIIDGKLIEENLLYAKMTEQVLIQQLDINNIKSIKQILFAGLDSFGNFFYQEKQN”, the “soluble fraction (log2)” value was -1.91.

Turning to “HMVPTATVGENTSTLPVRQLPGGPVLVVLVRGDIVLPLPGHAFQNGDVWREISTVNGVIGWVPDEFLDY”, the “soluble fraction (log2)” value is -1.3.

Turning to “HMVPTVSVDRDDTLRFEGRPVDWDVLKRELGAVAGIDELKIYADAKVSALTVSKIMKSASEAGVLQFILVT”, the “soluble fraction (log2)” value is -0.334.

For “HMVQARDQNIEEGRQLVLRELDRLDLVNESLTDVAADMNMKSVEDMYAAIGAGDLRVGQVVHAVLKRAD”, the “soluble fraction (log2)” value was -0.218.

For “HMVQDSEWWRNYQSAHDYFIQNGHLNVLRSDKKNTKLYNWIVGQRSSRWNSQGRINLLNSIGFIWDT”, the “soluble fraction (log2)” value was -1.65.

For “HMVQISNTDDLYPIVQRIVDANPQSVEDYKNGKAKALGFLVGQMMKETKGKANPSMVNDLIIKAIEE”, the “soluble fraction (log2)” value was determined as 0.0143.

With “HMVQIVINKEVQTTSQTILRENAGTSSRNIGYVDPNVKLRATLDRNSFYFIPEKKGWIMKSRVKLIEDLS”, the “soluble fraction (log2)” value was found to be 0.0552.

In the case of “HMVQMNMLELQEEMQRDRSWIIKHLFQDEYFRRKIAKFSQFPINDSGKYLFHRKSMLKFLNDYAEEIVER”, the “soluble fraction (log2)” value was -1.46.

In the case of “HMVQPSAAVRAHPVGAFVEQRQGLSDDQILALQKKWNEGIYARIQGTRWFLFSKDTPAVTSLLLVPDLP”, the “soluble fraction (log2)” value is -0.0222.

Turning to “HMVQVHEWTNKAGRTIKAKFVRGDAQSVTIFLGGRNFVLKIADLSEESQALARKLSAPPPPP”, the “soluble fraction (log2)” value is 0.0306.

With “HMVQVPSLVGISEIEAKTLLTQAGFFVKIVEVFDANQPVGIVLAQAPSAGESRIIGSPVTITVNKAQ”, the “soluble fraction (log2)” value was -0.6.

On to “HMVQVRQPAGAGDLFAKGRLHLSTGTIHTVKPLEVDLPKGRLTVVTGVSGSGKTTLILESLLPALAAAAA”, for which the “soluble fraction (log2)” value is 0.307.

On to “HMVRSLESESVYDRQRAYEIAYQLRTEERPYSFIATQLNKAGLRPQKAARYEWYSVQELLRSA”, for which the “soluble fraction (log2)” value was not below 0.43.

For the sequence “HMVSDISTQYQKIINEALDKQPEVKLADIVTMIKEQTSNKVQNGIVENVAKQMNGIEIIKIGQAKGVRRTT”, the “soluble fraction (log2)” value was found to be 0.152.

With “HMVSDTGAIEAIVAQVLADNPKLVEGYLATPEDKRGKAIGPFIGLTRKAAAGVNPQVVMDVLKKKLSEL”, the “soluble fraction (log2)” value was -0.733.

Take “HMVSEASELTDTINKIGSLAQALVGANKLSKTDLVGIIKKYHTSANYNSITDIGVAKNILAELEAKN”: the “soluble fraction (log2)” value was -0.264.

In the case of “HMVSFSIDEALVSAVKGPRSANVMSIQRQFLVRLSVERDGRVTITGANSKSVQQAREAVEAAVEEAKLHP”, the “soluble fraction (log2)” value is 0.238.

Regarding “HMVSGVMAQQAIAVLVQQEDKHAPLSDQALAERLQVQGIDISRRTVAKYRQLLQIPSAATRR”, the “soluble fraction (log2)” value is -0.0405.

As for “HMVSIGSQVAKRRRELRLTQQNLAEKMGVSFQAISSWEREEFLPDINKLQKLAAILNTKISYLLEE”, the “soluble fraction (log2)” value was -0.538.

As to “HMVSINETAFIQIKNSSATEIKEKITALKLDELKNVTITADIRTNKLIVVGPKATINKIQELVIELDTES”, the “soluble fraction (log2)” value was -0.49.

Consider “HMVSKTEAMAVFIADKLQEGMVPANEILELYKGMQLSDRTIRNAKKQLGIVSIRKDGQWYWSL”, for which the “soluble fraction (log2)” value is -0.997.

“HMVSLPSPLAGKVVSLTVQAGQEVKEGDEIMVLEAMKMNTQVHAPSSGRILALRVQPGDQVEEGQTLVTMG”: the “soluble fraction (log2)” value amounted to 0.0584.

Regarding “HMVSLSNQVFEKIEYDILSGKYKIGEIISEKRLSSELGVSRTPIREALGRLSEEGLVGDSPSGTVVLGI”, the “soluble fraction (log2)” value is -0.287.

Regarding “HMVSRVTTPGVVGKTWQETKQILKQADLTVGSLTRDGKDVTPADGDLVTAQNPSAGQAIVRGSSVDLTFDK”, the “soluble fraction (log2)” value was 0.0198.

For the sequence “HMVSSYTMAIQINGKLRATHDFSVDTSQEDIKKIIINLPAIQKYINGVEIKKFIIVPQKIVNIV”, the “soluble fraction (log2)” value is -0.0406.

With “HMVSTEDEISDKLLLDFALEKLSENEKQIVKLRYYNSLTQSKTAEILNMTQVQVSRSEKKILAKLRGII”, the “soluble fraction (log2)” value turned out to be 0.0807.

As to “HMVSTGIMVVDGRGSVLQHNEAALRQLGVEVLTFESQVKEKLASEDFSVRETTAMLNGKKVRIIAFSDIR”, the “soluble fraction (log2)” value was -1.66.

As for “HMVSVEELLSSLDPNEATVLKLLAERSSGVDELMERSGLDFSALSEAITNLELFGYIAREMDGVYSFS”, the “soluble fraction (log2)” value was -1.78.

Turning to “HMVSVPDIGEKLPDFTGTPKRLLTPLLNKNDVNIIIKGDGWVVSQKPPAGTPVTKGMTIEFTL”, the “soluble fraction (log2)” value was -0.0317.

As for “HMVTDSGEIEKLVDEVIDNNPDQVQQFREGKQQVLSYLVGQAMKLSRGKANPNQVNQFLRDKL”, the “soluble fraction (log2)” value amounted to 0.152.

With “HMVTDTGEIEAIIDRVISENPDSVSDFKNGKERALKFLMGQAMKESKGKANPQIVNELLLKKL”, the “soluble fraction (log2)” value came out at 0.0343.

For the sequence “HMVTDVDELEKLIQKVLDSNSSQVDEYRQGKEKVFGFFVGAVMKLTKGQADPDVVNQLLKEKLSGRK”, the “soluble fraction (log2)” value was -0.0516.

Regarding “HMVTDVDYSTFLSQVEEGKVESVTIEDGEILFKGKDENGEARWYITGEMNDPNLVERLKDKVPSFNAPA”, the “soluble fraction (log2)” value is -0.128.

For the sequence “HMVTIYQRIMLVLEDKQVSVNALSKLVDMSQTTLNTQLKGERTLSANVVAKVLVAYPDVSAEWLMRGVGTM”, the “soluble fraction (log2)” value was -0.426.

For “HMVTLYDGFLSELRKRIPRGAELTNTLVDMLYIEREAVYRRLRGEVPFTFIEVMTVSKELGISLDNLAQA”, the “soluble fraction (log2)” value is -0.802.

Regarding “HMVTTADIILEFYSRNPNATLTQAAQHVARATGTTYSRQAISAQLKRLEVAGLVERNGHVTV”, the “soluble fraction (log2)” value is -0.47.

For the sequence “HMVTTLLIINVAGKVKNPGVYQLPPGSRVVDALEAAGQQLKGVDISDINLARVLVDGEQILIGSN”, the “soluble fraction (log2)” value was -1.35.

On to “HMVTVQEGETLSAIAARSGVSVKDLVRANEIRNPDSIQEGQVLFVP”, for which the “soluble fraction (log2)” value came out at 0.165.

With “HMVVADFQNYTVKPKENLYSLTKTSGLSQEELVALNPELKNGVQEGMVIKLPAAVKLMAQPE”, the “soluble fraction (log2)” value was determined as 0.22.

As to “HMVVLPGEVLRINVIQEGKEHGQGVGYMDDGTMVVIENGREFIGEYMEVNVTKVLQTAAGRMIFGRVD”, the “soluble fraction (log2)” value is -0.917.

As to “HMVVLPPTEDAPEWAQVFDRLGRPESADGYKLPVPEGADPAFAKLASAKMHELGLSAKQGAALAAWWNEQA”, the “soluble fraction (log2)” value is -0.332.

For “HMVVMEIGANGSEVVKLQKRLNQLGYYTEHASGVYDVKTASAVNEFQRQNELNATGKADYTTLDMIYNQ”, the “soluble fraction (log2)” value is -0.204.

For “HMVVRRLPFGFSKRFGVLVVPGTSNPVELLYREDASMQSLLEARRVVAQPVAFKKTDVESFNAQLARAHEN”, the “soluble fraction (log2)” value is -0.122.

Regarding “HMVVSDSAEIDKIVQDVIAANPKAIEDFKSGKTNVTGWLMGQVMKLSHGKANPKQATEILNKYLSK”, the “soluble fraction (log2)” value amounted to 0.18.
